Measured values from paper PMC8880779 (International Journal of Molecular Sciences, 2022).

Tests used:
(Ca^2+)4-CaM = details: read-out: dissociation constant of the Aβ:(Ca^2+)4-CaM complex; cited from earlier work
Excerpt: These neurons are in the brain areas that are highly prone to neurodegeneration in AD. […] Considering their spatial organization in the CaM structure, we included a couple of additional hydrophobic amino acid residues as spacing groups.

[1] = design: method as in PMID 15890345, PMID 18686032, PMID 26890761, PMID 34829555; details: cited from earlier work
calmodulin (CaM) = target: T1, calmodulin (CaM) (Bos taurus, UniProt P62157); assay: Kinetics of Aβ(1–42) HiLyte-Fluor555 complex formation with CaM (fluorescence increase); assay type: binding, human
T1 construct: Purified bovine brain CaM; purchased Sigma-Aldrich (Madrid, Spain); host or cells: bovine brain

[2] = Aggregation state of Aβ(1–42) stock solutions (photoinduced cross-linking of unmodified proteins); assay type: physicochemical; details: 2 μM stock solutions
[3] = system: CaM in cerebellar granule neurons in culture; details: 2 h incubation with 2 μM Aβ(1–42) oligomers; cited from earlier work
Excerpt: These neurons are in the brain areas that are highly prone to neurodegeneration in AD. […] Therefore, CaM has a high capacity to buffer the intracellular concentrations of these highly neurotoxic Aβ peptides ...

| Substance | Kd ((Ca^2+)4-CaM) | neurotoxicity [1] | Y0, maximum fluorescence increase in the absence of the peptide (calmodulin (CaM); 10 nM Aβ(1–42) HiLyte-Fluor555, 5 nM CaM, 1000 s after addition, hyperbolic fit R^2 = 0.966, triplicate) | maximum fluorescence change vs CaM concentration (calmodulin (CaM); 10 nM Aβ(1–42) HiLyte-Fluor555, CaM 2.5, 5 and 10 nM) | slope of linear least-squares fit of first-order plot (calmodulin (CaM); fit y = 9.845 − 0.00396 x (R^2 = 0.922), 10 nM Aβ(1–42) HiLyte-Fluor555, 5 nM CaM, sign of slope in the equation negative) | stoichiometry of complex (calmodulin (CaM); 10 nM CaM, 10 nM Aβ(1–42)) | increase of rate constant (calmodulin (CaM); 10 nM vs 5 nM CaM, 10 nM Aβ(1–42)) | rate constant of the kinetic process (calmodulin (CaM); 1:1 molar ratio, 10 nM CaM and 10 nM Aβ(1–42)) | concentration of monomers [2] | predominant aggregation state ([2]; 1% NH4OH diluted with phosphate-buffered saline) | binding of internalized Aβ(1–42) by CaM [3] |
| --- | --- | --- | --- | --- | --- | --- | --- | --- | --- | --- | --- |
| Aβ(25–35): highly neurotoxic peptides derived from Aβ(1–42), like Aβ(25–35) (GSNKGAIIGLM; Amyloid-beta protein 42; UniProt P05067 696-706, looked up, fragment) | ~1 nM | strongly neurotoxic | – | – | – | – | – | – | – | – | – |
| Aβ(1–42) HiLyte^TM-Fluor555: Human Aβ(1–42)-HiLyte™-Fluor555 obtained from AnaSpec | – | – | 22% | the maximum fluorescence change was achieved when CaM concentration increased from 2.5 to 5 nM, and it is not significantly different between 5 and 10 nM of CaM | 0.00396 | – | – | – | – | – | – |
| Aβ(1–42): unlabeled Aβ(1–42) synthesized and supplied by StabVida and GenicBio Limited | ~1 nM | – | – | – | – | Aβ(1–42)2:CaM2 complexes | about 4 fold | (18 ± 4)·10^−3 s^−1 | undetectable concentration of Aβ(1–42) monomers | Dimers are the predominant aggregation state | CaM binds most of the Aβ(1–42) internalized in cerebellar granule neurons |
